Test [1] has as its target unclasped and untagged recombinant human integrin αVβ5 ectodomain (human) (UniProt P06756). Put plainly: fluorescence polarisation. On the technique in general: Fluorescence polarisation rises when a labelled molecule tumbles more slowly, as on binding a larger partner.
Test [2] addresses A488-irisin-His (UniProt Q8NAU1). As to the kind of experiment: fluorescence polarisation.
Test [3] has the same target. As to the kind of experiment: fluorescence polarisation. This is another data set of the same source.
Test [4] addresses reconstituted αVβ5/Hsp90α complex (human) (UniProt P06756). Put plainly: fluorescence polarisation.
Test [5] concerns the target clasped and tagged recombinant human integrin αVβ5 ectodomain (human) (UniProt P06756). Put plainly: BLI.
A further test deals with A488-FN10 (human). Put plainly: fluorescence polarisation.
Another test deals with A488-irisin-bac (UniProt Q8NAU1). Put plainly: fluorescence polarisation.
Test [6] concerns the target A488-irisin-His (UniProt Q8NAU1). As to the kind of experiment: MST.

Where “and” joins values, the source holds several entries; their conditions need not be identical. Equal values may be shown once. Read-outs that look alike come from different tables or passages of the source.

In the case of “FN10 (human fibronectin 10th FNIII domain, untagged) (domain or fragment)”, in test [1], the Kd (usually a measure of binding affinity in units of concentration) turned out to be 0.239 µM. As to “reconstituted αVβ5/Hsp90α complex (from UniProt P06756 32-991; P18084 24-717; P07900 1-732)”, the Kd in the test with A488-irisin-His [2] was 0.031 µM; in the test with A488-irisin-His [3], 0.037 µM. Turning to “unlabeled and untagged irisin (glycosylated, from mammalian cells) (from UniProt Q8NAU1 1-191) (ligand)”, the Kd in test [4] is 0.05 µM. “irisin-His (wild-type, glycosylated recombinant irisin from mammalian cells) (from UniProt Q8NAU1 1-191) (ligand)”: the dissociation constant Kd in test [4] was determined as 0.052 µM; in test [1] it was 0.035 µM; in test [5], 0.212 µM. “αVβ5 ectodomain mutant R218E (β5) (from UniProt P06756 32-991; P18084 24-717) (receptor)” yielded a reduction of affinity for irisin compared to WT with A488-irisin-His [3] of over 90%. Consider “irisin-bac (non-glycosylated irisin produced in bacteria) (from UniProt Q8NAU1 1-260) (ligand)”, for which, in test [1], the Kd was 0.294 µM and 0.299 µM. Regarding “unclasped and untagged recombinant human integrin αVβ5 ectodomain (from UniProt P06756 32-991; P18084 24-717) (receptor)”, the dissociation constant (Kd) was found to be 0.146 µM with A488-FN10 (human), 0.028 µM with A488-irisin-His [3] and 0.256 µM with A488-irisin-bac. Moreover, the stoichiometry N (commonly the number of molecules, sites or subunits per partner or assembly) in the test with A488-irisin-His [6] came out at 1. On to “αVβ5 ectodomain mutant E304R (β5) (from UniProt P06756 32-991; P18084 24-717) (receptor)”, for which the reduction of affinity for irisin compared to WT with A488-irisin-His [3] is 80%.

For the origin of these results see paper PMC10984146.
